Data on 79 sequences can be found in the supplement of paper PMC10126150.

± gives the standard deviation of the averaged measurements.
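Note: ATP exposure 15 min at 22 °C before imaging.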

This series has as its system ATP. The experiment in a line: switch fluorescence ratio, 500 uM ATP over buffer (Cy3 cluster intensity, sum of 5 cycles each) (fold (ratio)); higher = stronger signal-on switching upon ATP binding; sequences stand for … in TCGTCGGCAGCGTCAGATGTGTATAAGAGACAGTTTTTTTTTTTTTTTTTTTTTTTTT…TC. Particulars: aptamer strand: ATP DNA aptamer (quencher-CACCTGGGGGAGTATTGCGGAGGAAGG + anchor), 100 nM annealed; ATP concentration: 500 uM. The gist of the method:
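Cy3-labelled switching-strand clusters on a modified Illumina MiSeq flow-cell were annealed to 100 nM quencher-labelled ATP aptamer and imaged first in selection buffer, then after 15 min with 500 uM ATP at 22 °C. NaOH stripping and re-annealing separated each of five buffer/ATP cycles, and clusters outside 100-1000 RFU were excluded. The fluorescence ratio sums target-cycle Cy3 intensity over buffer-cycle Cy3 intensity per cluster and averages it per switch-domain sequence.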
Turning to TCCGGGCCCA, the switch fluorescence ratio is 1.038 ± 0.0023.
Take TGCTGAAATG: the switch fluorescence ratio was 1.03 ± 0.07.
Consider TTCGGGGGAG, for which the switch fluorescence ratio stood at 0.979 ± 0.026.
As for AGGAGAGACC, the switch fluorescence ratio came out at 0.9848 ± 0.0029.
As to TTGACGGAGA, the switch fluorescence ratio was 0.993 ± 0.039.
As for GCGTTAGTAG, the figure is 0.9971 ± 0.0082; as for GAAGGGTTAC, 1.15 ± 0.15.
With GGTTTTTACA, the switch fluorescence ratio was found to be 0.981 ± 0.024.
On to CAGTCAGGGC, for which the switch fluorescence ratio was 1.26 ± 0.21.
Then GAGTCGGGGG, with 0.985 ± 0.01; and TTATCGATAG, with 0.985 ± 0.019; and CTTGAATTTT, with 0.988 ± 0.049.
As for ATGTGGAATG, the switch fluorescence ratio was found to be 0.994 ± 0.037.
For ACATGAAGGT, the switch fluorescence ratio was 1.006 ± 0.0035.
Then TCCATGTGTT, with 1.01 ± 0.037; and TGGAAAGGGT, with 1.06 ± 0.035; and TTTTGGATAT, with 1.28 ± 0.42.
CTTGCATAAC: the switch fluorescence ratio amounted to 3.51 ± 0.88.
Turning to GACCTATCTT, the switch fluorescence ratio was found to be 1.035 ± 0.0017.
For TTAGTTGGGT, the switch fluorescence ratio is 1.002 ± 0.008.
TTAAGACTTT: the switch fluorescence ratio came out at 1.02 ± 0.032.
On to TGCCAGTGGG, for which the switch fluorescence ratio was determined as 1.04 ± 0.068.
Consider TACGGGCCGG, for which the switch fluorescence ratio came to 0.98 ± 0.011.
On to TTTTGGCGTC, for which the switch fluorescence ratio worked out at 0.994 ± 0.023.
For the sequence ATAAGCGGAG, the switch fluorescence ratio was found to be 1 ± 0.013.
As for AGTTCTAGGA, the figure is 0.953 ± 0.03.
Then AGAGGATGTA, with 1 ± 0.056.
As for CGTGCGCATA, the switch fluorescence ratio was 3.77 ± 1.4.
Consider TAATGGTTGA, for which the switch fluorescence ratio was 1.02 ± 0.029.
TATATGGGTA: the switch fluorescence ratio was found to be 0.982 ± 0.057.
TTTTTTGCGA: the switch fluorescence ratio is 1.06 ± 0.079.
With CCAGATATCA, the switch fluorescence ratio was 0.999 ± 0.054.
Take TTTAGGGAGG: the switch fluorescence ratio worked out at 0.974 ± 0.026.
For TTTTTTAAGT, the switch fluorescence ratio worked out at 0.995 ± 0.024.
As for ACACTGCCGG, the figure is 1.04 ± 0.026; as for GAAGTAGTTT, 0.98 ± 0.089.
As to TTGCACGCCT, the switch fluorescence ratio amounted to 1.01 ± 0.024.
Turning to GCACGGGGCT, the switch fluorescence ratio is 1.04 ± 0.018.
Regarding GGTTAAAATC, the switch fluorescence ratio was determined as 1.02 ± 0.023.
As for CCGGATGGTG, the figure is 1.017 ± 0.0044; as for TCAGGGGGTT, 1.05 ± 0.037; as for CCGGGCCGAA, 1.05 ± 0.017.
For ACGTTGAATG, the switch fluorescence ratio came to 1.01 ± 0.011.
Then GGTATGGGTC, with 0.947 ± 0.034.
Turning to GGGTCATGTA, the switch fluorescence ratio was 1.008 ± 0.0027.
CCCATGTGAG: the switch fluorescence ratio amounted to 1.09 ± 0.022.
AGTTGTCTCT: the switch fluorescence ratio is 0.979 ± 0.035.
As for GACGGGCCGG, the figure is 1.01 ± 0.03; as for TCGAAGGCAT, 1.06 ± 0.03; as for ACCAAGAGCG, 1.05 ± 0.023.
For TGGAGTAGG, the switch fluorescence ratio stood at 1.01 ± 0.025.
Then ACGAGATTAT, with 1.02 ± 0.014.
GGAAAATCAA: the switch fluorescence ratio worked out at 0.9812 ± 0.0078.
GCCCGGAGAC: the switch fluorescence ratio is 1.71 ± 0.025.
CTATTAGGTA: the switch fluorescence ratio amounted to 0.977 ± 0.0046.
For CATATTTTTA, the switch fluorescence ratio turned out to be 1.04 ± 0.05.
As to AATACGGGGT, the switch fluorescence ratio turned out to be 1.03 ± 0.033.
Take TTCAGCGCGC: the switch fluorescence ratio amounted to 1.007 ± 0.0075.
In the case of GTATCCAGGG, the switch fluorescence ratio was found to be 1.13 ± 0.036.
Take GGTAAATGGG: the switch fluorescence ratio came to 0.957 ± 0.011.
Take CAGGACTATT: the switch fluorescence ratio came to 0.995 ± 0.021.
Regarding TCACGGGAAT, the switch fluorescence ratio is 1.02 ± 0.055.
As for CGTTGCAGGG, the switch fluorescence ratio amounted to 0.984 ± 0.024.
For CATTAGCCAG, the switch fluorescence ratio was 0.99754 ± 0.00029.
Then AGGATAACCC, with 1.018 ± 0.0064.
As to CCAGGCACTG, the switch fluorescence ratio amounted to 1.03 ± 0.021.
Take GCGACGGGCG: the switch fluorescence ratio came to 0.972 ± 0.044.
Then GGGACGCAGG, with 1.015 ± 0.008; and GCCTTGCCTT, with 1.03 ± 0.013; and ATTATGTCAG, with 0.991 ± 0.024.
In the case of TGCTTATTGG, the switch fluorescence ratio was found to be 0.9725 ± 0.0081.
As for TCAGACTAGA, the switch fluorescence ratio came to 1.028 ± 0.0045.
TTCATATTCA: the switch fluorescence ratio was 1.01 ± 0.023.
As to TCGGGATTGA, the switch fluorescence ratio turned out to be 0.98 ± 0.013.
On to AATTTCCTTT, for which the switch fluorescence ratio was 0.988 ± 0.036.
For GGGGTCCCAG, the switch fluorescence ratio amounted to 0.971 ± 0.03.
Regarding GAATGGTAGT, the switch fluorescence ratio was found to be 1.025 ± 0.0078.
For TTTATGGTTC, the switch fluorescence ratio turned out to be 0.992 ± 0.01.
GAATAGGGTG: the switch fluorescence ratio stood at 1.08 ± 0.039.
